The DeepSol protein solubility set

Assay: soluble on expression in E. coli; label from the status in PepcDB or PDB records

Row | Sequence | soluble on expression in E. coli
1 | MSKTRMEKLKTLKTIAETLNQGHDIKATLDEVLKELLSLTNLQSGWIFLIEEDGSYTLAADAYLPPALSRKEKVLMCEGECYCLTKFNNGGLRKAANIMNCKRIESAENLHCFDTEGITHHATVPLEDGDRRFGLLNVAAAGKTMFDEEELHLLESVAFQIGTAIQRMRLSEYQQK | not soluble
2 | MAKEFQLTHIFKKVSEFKDGECRCGPLEEHFNVEWLLYINRKDDELAVFLGCNSLQGTEETTLSIYVELKFTLKNSIGTRVTKIAKCLLSNKSTESDFGLNKFIGWETLLKDYLIDDSIIIEAKIKITKMTGFPRKELRSFDESSEEYSDMIIAVGDRKFYVLKQLLASNSTHFQSLIPLDFEEMDCEGKSEITLPDINPSDFQCLLEVLYGEPAMDDENVEGILHSAHMYKMTKVIRNCEEFLSNKSEKPMRDKFKIAKQYQLESLKKSCLSKIQTIQDIKSAMAGDLSDMDATVVAALLEKSVTIEPPSKNGRPY | soluble
3 | MGSDKIHHHHHHMYLLVYGSLRYGFELNHLVAKSRFVGLGYIEGYEMYDLGNYPGVIKGDGIVWGEVYEIDENLIKLLDEVEDYKGSPDDLYVREKTRVYFDQKRKYYLDNVYFYRYNKEIVKNMEKIEDGDYSAWSGMPIIVNYFAYAENTNERILHQRGVDMILSETPAYTKGYRLIFNIPCKYGYCANLIEDESGIICGYLQKVFLHTLNSLDKAEQHLIKYIREVVKVYDRNGKEYFAYAYVSSYKENRKKPSEEYVKIIREGLMRGWGNECVSTGLYDEPGIS | not soluble
4 | MSPLTQFKFFLWFFSHFKVALIGYLKPKLIQLTDNEIVVRLPLTRRSRNHLHSMYFGALAVGADIAGGLHGFYHAKQAKCKVSLAFKSFQAQFLRRPESDVYFICTEGDVVKKMIEESKKSGERINKPIHIKAYINYLTHPEEIADFILELSLKVIKLEHHHHHH | soluble
5 | MRFNHFSIVDKNFDEQLAELDQLGFRWSVFWDEKKILKDFLIQSPSDMTALQATAELDVIEFLKSSIELDWEIFWNIALQLLDFVPNFDFEIGKAFEYAKNSNLPQIEAEMTTENIISAFYYLLCTRRKTGMILVEHWVSEGLLPLDNHYHFFNDKSLATFDSSLLEREVLWVESPVDSEQRGENDLIKIQIIRPKSTEKLPVVMTASPYHLGINDKANDLALHDMNVELEEKTSHEIHVEQKLPQKLSAKAKELPIVDKAPYRFTHGWTYSLNDYFLTRGFASIYVAGVGTRSSDGFQTSGDYQQIYSMTAVIDWLNGRARAYTSRKKTHEIKASWANGKVAMTGKSYLGTMAYGAATTGVEGLELILAEAGISSWYNYYRENGLVRSPGGFPGEDLDVLAALTYSRNLDGADFLKGNAEYEKRLAEMTAALDRKSGDYNQFWHDRNYLINTDKVKADVLIVHGLQDWNVTPEQAYNFWKALPEGHAKHAFLHRGAHIYMNSWQSIDFSETINAYFVAKLLDRDLNLNLPPVILQENSKDQVWTMMNDFGANTQIKLPLGKTAVSFAQFDNNYDDETFKKYSKDFNVFKKDLFENKANEAVIDLELPSMLTINGPVELELRLKLNDTKGFLSAQILDFGQKKRLEDKVRVKDFKVLDRGRNFMLDDLVELPLVESPYQLVTKGFTNLQNQSLLTVSDLKADEWFTIKFELQPTIYHLEKADKLRVILYSTDFEHTVRDNRKVTYEIDLSQSKLIIPIESVKN | soluble
6 | MDKGLSRLVELLNARGASMEEMVRLLEEERASIVALQAERLQAAVEQKVQVAARMEALDGDCRRVIADEARVRGLGEATLSPLLAGNPSPEKTELAGLQTKLSTLAQEIKGMIADNRRLLETSMVTVGRSLAFFQSRLTVAETYGNSGSMVERSSGGILRKEI | not soluble
7 | MLEKFTVIRGKAVPLRGEDIDTDRILPARFMKVLTFEGLGQYLFYDERFDEKGNPKPHPLNDPRYRGATILLVESGFGSGSSREHAPQAIKRAGFKAIIGESFAEIFFGNATAIGLPCVSLAPEDLGVLFRSVEENPELEVEIDLVNKEVRFGDRTAPLFIREEAREALVEGLWDPIGELLEAGELLDQFDRKLPYPRRTE | soluble
8 | LKVLTNKASVMLFMKGNKQEAKCGFSKQILEILNSTGVEYETFDILEDEEVRQGLKTFSNWPTYPQLYVRGDLVGGLDIVKELKDNGELLPILKGE | soluble
9 | MSLENKRILITGGAGFIGSNMVEHLLPKNEVTVIDNLSITDDRYIKKFYDNPNFKFIKKDILNGIDGYHYDIVVHLAADSDVRNGSSNPALDMKVNVEGTISVLEMMRKSDIKDILFASSSTVYGEAKVIPTPENYGPLLPISSYGASKLAAEAFISAYASYYGFNALLFRFANVVGKNSTHGVIFDFINKLKNNKKELEVLGDGTQAKSYIHVEDLIGSMIYVYEHVKGVEPFNLGNDDVTSVDKIAKFVLEAMGLKDTAIVHRGGYNGRGWPGDVKYAMMDIAKLKKTGWKNKYSSDEAVKKSINEVMNQILEGHHHHHH | soluble
10 | MSAFSAINEEREIERDEFTPGIEPQATWCPGCGDFGVLKALKQAMPEVGKNPDEVALFTGIGCSGKLNSYFNSYGFHTIHGRSLPVARAAKLANPNLEVIAAGGDGDGYGIGGNHTIHTARENHDMTYIVFNNEIFGLTKGQTSPTSPKGHKSKTQPHGSAKSPIRPLSQQLNAGATYIARTAAVNPNQAKEIIAEAIEHDGFAHIDFLTQCPTWNKDAKHYVPYTDVQQSDEFDFDVSDRAEAAEMMRKTEERLYEGEVLTGRMYIEDERPSYGEEKRQIGEMPEEPLAERYFDEDAEWERTYDNLLEHHK | not soluble
11 | MSLPKITKIEVQKKNKERFNLFLDEQFEMGIDIDTLVKFNLKKGQQLEAADMAEIQKYDHYRIGLNKAIQYLSYKKRTEKEVIQYLQKEEISEQAISEVIEYCYREKLIDHQDYAESLKNTMIRTTDKGPKIYQQKLYQLGIEPNIIEIFTELYREQQELDDIIQIAEKISKTKKGPQNKVKEKVMQSLIQKGFEMETIHAVLNEMDFTQDEAVLDDLLQRDLEKIYNKNRKKYTQQKLISKTIEGLMRKGYKYDKIKAKLEESGIADGTEEIEEGHHHHHH | soluble
12 | MGSDKIHHHHHHMPNPTRAFLLGPLLKGVSRSFYLTLRVLPAGMRDPIGLAYLLARAADTIADTSLIAPQRRLTLLLSLREQVNGATDDAALFQRMAAEVAGQQVQSDEKVLLESLGPALDVLSQLNEFDRKAVREIVSTLTEGMEFDLRTFPDERSGQIAALREYDELDRYTYLVAGCVGEFWTTMTYAHMPGTLKERADVMARRGVRFGKALQMTNVLRDCGKDLRIGRCYLPQTMLDRYGLSPQDLLRPDNSVRARPLMIELLRKTVDHFREALDYTLAIPASAVRLRLASLWPILIGLETLILLADNDAWLDPQKVSKVRRNKVYQIIASSLLLVPSNGLVRHAVERRIRQIEARF | not soluble
13 | SNTGPYYFVKNLPLHELITPEFISTFIKKGKLILSLDKDTYEETGLQGHPSQFSGRKIMKFIVSIDLMELSLNLDSKKYERISWSFKEKKPLKFDFLLAWHKTGSEESTMMSYFSKYQIQEHQPKVALSTLRDLQCPVLQSSELEGTPEVSCRALELFDWLGAVFSNVDLNNEPNNFISTYCCPEPSTVVAKAYLCTITGFILPEKICLLLEHLCHYFDEPKLAPWVTLSVQGFADSPVSWEKK | soluble
14 | MGSDKIHHHHHHMTNHQHPQTTTQWIDLIANSELPAITSTARMLDKFSNDDKSSLPKLSEAILHDQGLSSCLLKVANNIQHISINKVTTVSRASVVLGIQSVKNICLTAKLVSSLLASKSLDINVYEQLTQLMANSFYAGMLAKMMVPNYSEEIQEEVYLAAMLYRIGESAFWSAGGDVAKKLANYEAKSPQDFNQYCRKEMGTNFSELSKGLAGTWNLSDLLIKALDQPTTRTDEVKVIYFADKLSAIIAKPEGCEEDYHKLLKEIAYIVGISVRQLTVRIEHTREQAEKLLSSYGAEILTERINSLPTAEDFKSLGGDFDTREVVSKDKALLNGFMKLTKLIQNSKDFNEYLQLTLESLALTFAFDRSSFLMLVDDRARVKSRLVVNKNAQDDASKINIDIKHSDNVIARVISTDTAALINDHQEIRWRDLVTEEISEVIVEGAIAFVPVKIGGKAIGVICLQLLSPDQKIETQDFQQICAFIDHLNMCLTMIKYS | not soluble
15 | MAHHHHHHMSDKLEDIGEFVLVIGDFHSPMRNLGLPDCFKDLLKTDKIKHVLCTGNVGCNENLELLKNIADSVHITKGDMDNNFDFPEKINIKIGDFKISLVHGHQIIPWGDLNALLQWQKEYDSDIIISGHTHKNSINNFEGKYFINPGSATGAFQPWISNPTPSFILMAISKSSIVVYVYEEKNGKMNVEMSELRKQ | soluble
16 | MKALHFGAGNIGRGFIGKLLADAGIELTFADVNQTVLDALNARHSYQVHVVGENEQVDTVSGVNAVSSIGDEVVDLIAEVDLVTTAVGPVVLERIAPAIAKGLAQRKAQGTERPLNIIACENMVRGTTQLKGHVFNALAEEHKAWVEAHIGFVDSAVDRIVPPSASATHDPLEVTVETFSEWIVDKTQFKGALPTIPGMELTDNLMAFVERKLFTLNTGHAITAYLGKLAGHQTIRDAILDEKIRAVVQGAMEESGAVLIKRYAFDPQKHAAYIQKILGRFENPYLKDDVERVGRQPLRKLSAGDRLIKPLLGTLEYGLPHRNLVKGIAAAMHFRSEDDPQAQELAALIADKGPQAALAQISGLDAASDVVAEAVNDYNAEK | not soluble
17 | AIAFILSAQRLSGTQVFRRLAEGCTGYSVSSGCRQRRRCCPGAPQRPRRVRVNALQLQSGLADPLDPKSEAEVREHLRSNSPAERALGINYARYLDESTRYDILLEMMEDTDPQVRYAAVTQLATVGSHDRQRTLKAVRKILWNTEEDASVRAGALTCWAVSGSTRPSQTWKSSSTSRRTGWCGSASSLL | soluble
18 | MQVKLGFTEHSFNLIVSSTSMFKNLLASVGIGAAKVDTRLFNNSVIPGGILEGEVYIRGGDVAQDIQDIYLKLATEYQREVDDSTVTEECVMVNYRLLEHLTIQPKEEVVIPFSLNLPDEMPLTFGHIPVYVRTGLDIKSAINPRDRDYLEVRTHPLMQRVLLAIEHLGFHLHKVDCEYTHYFGGAYPFVQELEFRPTGKYRHSLDELEVVFRLTADQLEVLLEIDKRARGWKGWLEEAFDIDERYARLIVKQSDLYETDVEALIDQIIQSHLS | not soluble
19 | MREQSGINGHEQLATFIDRTDRVLNLVDGFMPETAWLSDIETLTYLHATVSTHRHQVRVPETPMHLDAILADQVLTGGLEPRLGQAHLRTLTIMGFPSQTWPGLLDDLNRLAFDYRWVTRAICLDKTDAAKVLGRIRRQWFAKRKSIAAMLKEIMTNEASALMDSDAANKAVDADMALQELGSDLVGAAYVTATVTIWNDDPRIADERLRLVEKVIQGRDFTCMVERVNAVEAWLGSLPGHVYANVRQPPVSTLNLAHMMPFSAVWAGPERDEHFDAPPLFLAKTEGSTPFRFSLHVGDVGHTLVVGPTGAGKSVLLALMALQFRRYARSQIFAFDFGGSIRAAALAMRGDWHDLGGSLAEDASEPVALQPLAGIDAEEERAWAAEWVAAILAREKVEITPDVKEHVWSALNNLASAPKSERTLTGLSVLLQSQALKQALKPYCVGGPWGRLLDAETERVGSADVLAFETEGLIGTGAAAAVLAYLFHRIEHRLDGRPTLLIVDEGWLALDDEGFASQLREWLKTLRKKNASVIFATQSLADIDGSAIAPAIIESCPTRLFLPNERALEPQIATIYERFGLNDRQIEILSRATPKRDYYCQSRRGNRLFELGLGEVALAFTAASSKGDQILIARLMAEHGPTGFAKAWLEARGVAWATDLIITPQKEKLPLEHHHHHH | soluble
20 | MGSDKIHHHHHHMFEIKVSQEIKNACPVFAGAAVYAAVKNTAYCDGLWKEINTFTEDLTTTTQMADIKLQPVIAATREAYKRCGKDPGRYRPSAEALRRRLMRGIPLYQIDTLVDLINLVSLRTGHSIGGFDADKIQGNHLELGIGKAEEPFEGIGRGILNIEGLPVYRDSFGGIGTPTSDHERTKMDIGTTHILAIVNGYNGKEGLKEAAEMIQSLLKDYAGSDGGELIYFE | not soluble
